B1: probasin ARE-2 (dsDNA)
DNA 1: GTAAAGTACTCCAAGAACCTATTT
DNA 2: AAATAGGTTCTTGGAGTACTTTAC
B2: probasin ARE-1 (dsDNA)
DNA 1: ATAGCATCTTGTTCTTAGT
DNA 2: ACTAAGAACAAGATGCTAT

How the values were obtained:
Conditions in all cases: tags: GST fusion, expressed in E. coli; chain copies: 2
[1] = target: T1, GST-AR1 (androgen receptor DNA- and steroid-binding domains) (Rattus norvegicus, UniProt P15207 P15207:541-902); experiment: footprint; site -140 to -117 protected within probasin 5'-flanking DNA
Description: (§1) The DNase I footprinting was performed essentially as described (Von der Ahe et al., 1993; Rennie et al., 1993). Proteins (10 ng to 18 µg) were incubated with 20,000 cpm of the labelled DNA in 100 µl of DNA binding buffer for 30 min at 20° C. After adjusting the samples to 4 mM MgCl_2 and 2.5 CaCl_2 mM, 5 ng of DNase I was added and allowed to digest the DNA for 2 minutes at 20° C. The reaction was stopped by adding 100 µl of stop buffer (0.25% SDS, 0.3M EGTA, and 500 µg/ml of proteinase K) and incubated for 1 hour at 37° C. The samples were extracted with phenol-chloroform; precipitated with 0.2M sodium acetate, 85 µg/ml carrier tRNA, and 2 volumes of ethanol; redissolved in 3 µl of formamide dye solution. After heating at 70° C. for 10 minutes and rapid cooling on ice, the samples were loaded, together with an A+G Maxam-Gilbert sequencing reaction to obtain a purine ladder, on 7% polyacrylamide/urea gels (acrylamide:bis, 30:1) and run (Rennie et al., 1993). The gels were dried and set up for autoradiography.
(§2) The androgen response elements (ARE) are located at −241 to −223 (ARE-1) and −140 to −117 (ARE-2). The sequence of ARE-1 and ARE-2 in the 5'-flanking PB DNA were determined using DNase I footprinting assays with peptides containing the DNA-binding domain of the androgen receptor and later bioassay of the functional domains. […]

[2] = target: T2, GST-AR2 (androgen receptor DNA-binding domain and hinge region) (Rattus norvegicus, UniProt P15207 P15207:541-650); experiment: as above
T2 sequence (P15207 541-650, one chain of several): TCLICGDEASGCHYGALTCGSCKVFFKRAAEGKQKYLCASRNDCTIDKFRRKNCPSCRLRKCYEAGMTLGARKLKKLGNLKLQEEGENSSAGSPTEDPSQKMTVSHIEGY
Description: as §1, §2

[3] = target: T1, GST-AR1 (androgen receptor DNA- and …); experiment: footprint; site -236 to -223 protected within probasin 5'-flanking DNA
Description: as §1, §2

[4] = target: T2, GST-AR2 (androgen receptor DNA-binding …); experiment: as above
Description: as §1, §2

T1 sequence (P15207 541-902, one chain of several): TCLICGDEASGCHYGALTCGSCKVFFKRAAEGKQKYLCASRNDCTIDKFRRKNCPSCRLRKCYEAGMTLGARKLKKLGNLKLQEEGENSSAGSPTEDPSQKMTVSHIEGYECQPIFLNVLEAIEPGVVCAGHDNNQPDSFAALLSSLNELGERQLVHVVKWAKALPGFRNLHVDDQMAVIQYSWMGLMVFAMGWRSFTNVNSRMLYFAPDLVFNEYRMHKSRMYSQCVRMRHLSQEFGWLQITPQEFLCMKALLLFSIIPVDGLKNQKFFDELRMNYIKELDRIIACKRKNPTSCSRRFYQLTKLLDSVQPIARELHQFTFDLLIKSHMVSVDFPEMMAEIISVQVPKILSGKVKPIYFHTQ

Row | Binder | binding result [1] | binding result [2] | binding result [3] | binding result [4]
1 | B1 | binds | binds |  | 
2 | B2 |  |  | binds | binds

Source: US5783681, “Androgen regulation with DNA sequences of rat probasin gene” (University of Manitoba)
